Assay results reported in patent US20250145690A1 (US Dept. of Health and Human Services, published 2025).
Where a chain is given by its changes, count along the chain named.

Tests used:
Test in all cases: bead flow cytometry, AUC minus CD4
[1] = biological target: T1, HCoV-229E spike protein (Sino Biological 40605-V08B) (HCoV-229E, UniProt P15423 16-1115)
T1 sequence: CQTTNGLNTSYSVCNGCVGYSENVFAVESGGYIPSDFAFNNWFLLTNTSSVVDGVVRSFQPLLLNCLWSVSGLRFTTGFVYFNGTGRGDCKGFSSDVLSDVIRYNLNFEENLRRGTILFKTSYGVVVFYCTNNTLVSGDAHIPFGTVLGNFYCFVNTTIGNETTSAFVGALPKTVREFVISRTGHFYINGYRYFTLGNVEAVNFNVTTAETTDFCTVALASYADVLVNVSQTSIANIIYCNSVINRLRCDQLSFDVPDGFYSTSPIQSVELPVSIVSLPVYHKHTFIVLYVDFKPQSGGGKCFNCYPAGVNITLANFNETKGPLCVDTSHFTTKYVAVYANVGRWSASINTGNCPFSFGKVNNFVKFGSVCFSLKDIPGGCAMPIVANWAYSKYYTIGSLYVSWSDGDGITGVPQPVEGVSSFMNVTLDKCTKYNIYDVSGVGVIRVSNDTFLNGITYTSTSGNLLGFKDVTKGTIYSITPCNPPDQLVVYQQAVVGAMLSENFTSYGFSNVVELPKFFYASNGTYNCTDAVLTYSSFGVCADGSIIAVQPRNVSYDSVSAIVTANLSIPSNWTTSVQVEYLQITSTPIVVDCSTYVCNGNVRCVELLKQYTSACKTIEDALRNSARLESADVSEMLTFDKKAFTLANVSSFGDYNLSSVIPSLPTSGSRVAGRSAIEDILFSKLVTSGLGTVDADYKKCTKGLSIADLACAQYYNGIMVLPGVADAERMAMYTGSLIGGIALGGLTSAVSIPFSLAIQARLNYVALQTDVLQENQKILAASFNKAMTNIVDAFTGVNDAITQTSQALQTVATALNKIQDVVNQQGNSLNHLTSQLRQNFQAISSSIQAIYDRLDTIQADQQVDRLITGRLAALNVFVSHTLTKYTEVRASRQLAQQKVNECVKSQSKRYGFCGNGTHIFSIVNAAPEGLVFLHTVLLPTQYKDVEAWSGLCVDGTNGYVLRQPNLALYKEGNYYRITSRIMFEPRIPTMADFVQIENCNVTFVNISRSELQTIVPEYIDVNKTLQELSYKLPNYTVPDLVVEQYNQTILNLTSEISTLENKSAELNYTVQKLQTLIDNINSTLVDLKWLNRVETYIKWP

[2] = biological target: T2, HCoV-NL63 spike protein (Sino Biological 40604-V08B) (HCoV-NL63, UniProt Q6Q1S2 19-1296)
T2 sequence: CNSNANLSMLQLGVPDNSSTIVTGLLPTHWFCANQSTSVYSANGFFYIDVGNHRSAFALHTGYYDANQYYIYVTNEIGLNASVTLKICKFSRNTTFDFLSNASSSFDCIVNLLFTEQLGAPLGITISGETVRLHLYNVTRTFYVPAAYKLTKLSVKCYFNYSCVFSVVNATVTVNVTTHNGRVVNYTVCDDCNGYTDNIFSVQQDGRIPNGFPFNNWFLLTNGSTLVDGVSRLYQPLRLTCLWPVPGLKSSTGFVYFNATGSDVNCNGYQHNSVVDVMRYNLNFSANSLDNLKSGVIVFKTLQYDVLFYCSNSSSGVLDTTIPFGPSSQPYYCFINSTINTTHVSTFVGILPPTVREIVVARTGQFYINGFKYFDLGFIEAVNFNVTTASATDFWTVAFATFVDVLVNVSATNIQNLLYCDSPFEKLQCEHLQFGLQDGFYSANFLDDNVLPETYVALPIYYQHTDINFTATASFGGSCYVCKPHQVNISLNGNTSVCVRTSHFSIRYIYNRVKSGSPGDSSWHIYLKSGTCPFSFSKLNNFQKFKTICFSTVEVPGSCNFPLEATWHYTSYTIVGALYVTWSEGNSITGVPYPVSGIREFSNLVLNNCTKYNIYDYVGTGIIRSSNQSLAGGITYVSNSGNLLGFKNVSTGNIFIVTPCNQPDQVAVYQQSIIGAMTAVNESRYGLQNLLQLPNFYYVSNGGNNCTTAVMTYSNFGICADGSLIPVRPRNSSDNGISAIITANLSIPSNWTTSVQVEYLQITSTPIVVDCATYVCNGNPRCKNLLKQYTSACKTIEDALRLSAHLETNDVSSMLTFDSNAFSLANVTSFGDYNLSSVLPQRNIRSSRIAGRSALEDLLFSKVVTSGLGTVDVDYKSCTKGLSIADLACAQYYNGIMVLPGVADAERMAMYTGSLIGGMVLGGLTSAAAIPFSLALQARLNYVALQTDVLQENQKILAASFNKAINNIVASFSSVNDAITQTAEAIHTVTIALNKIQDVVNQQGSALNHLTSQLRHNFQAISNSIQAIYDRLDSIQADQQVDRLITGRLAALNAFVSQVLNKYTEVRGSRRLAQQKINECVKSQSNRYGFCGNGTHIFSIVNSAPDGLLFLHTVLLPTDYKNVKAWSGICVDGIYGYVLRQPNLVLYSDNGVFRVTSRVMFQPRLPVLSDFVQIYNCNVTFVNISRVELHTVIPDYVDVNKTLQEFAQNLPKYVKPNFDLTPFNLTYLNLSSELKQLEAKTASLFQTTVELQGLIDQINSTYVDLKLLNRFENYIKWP

[3] = biological target: SARS-CoV-2 spike receptor binding domain (RBD), recombinant (SARS-CoV-2, UniProt P0DTC2 319-541)
[4] = biological target: SARS-CoV-2 spike N-terminal domain (NTD), recombinant (SARS-CoV-2, UniProt P0DTC2 14-305)

Measured: binding result

B1: COV77-35 (antibody, V domains shown)
VH: QMQLQESGPGLVKPSQTLSLTCAVSGGSISSDGYYWNWVRQHPGKGLELIAYIYYNGRPYYNPSLRSRVNISLDTSMNQFSLRVKSLTAADTAVYYCARGRLGYCAAGSCFLDSFDYWGQGALVTVSS
VL: EIVMTQYPATLSVSPGETATLSCRASESISRNLAWYQQKPGQAPRLLIYGASTRATGIPARFSGSGSGTEFALTISSLQAEDFAVYSCQQYHNWLLTFGGGTKVEIK
no binding (tested: 200 µg/mL): all assays above

B2: COV57-45 (antibody, V domains shown)
VH: QVQLVQSGTEVKKPGSSVKVSCRASGGTLSSYSVSWVRQAPGQGLEWMGRIIPILDKKTYAQKYQGRVTILADTSTSTVYMELSSLKSDDSAVYFCTTFDYDTSGQRDQHDYWGQGTPVTVSS
VL: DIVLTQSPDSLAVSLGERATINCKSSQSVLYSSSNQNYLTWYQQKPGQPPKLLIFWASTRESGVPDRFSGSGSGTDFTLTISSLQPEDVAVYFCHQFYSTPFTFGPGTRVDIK
no binding (tested: 200 µg/mL): all assays above

B3: COV49-28 (antibody, V domains shown)
VH: GVQLLESGGGLAQPGGSLKLSCVASGFSFNDYAMTWVRRPPGKGLEWVSAVSSGGQTSYSTDSVKGRFTISRDNSKNTLYLQMSSLRAEDTAIYYCVKGAFYNILSSIIVEGDYWGQGTLVTVSS
VL: GVVLTQSPLSLPVTLGQPASISCRSSQSLVFSDGKTYLNWFQQRPGQSPRRLIYQVSNRDPGVPDRFSGSGSGTDFTLKISRVEAEDVGVYYCMQGTHWLSITFGQGTRLEIK
no binding (tested: 200 µg/mL): all assays above

B4: COV49-30 (antibody, V domains shown)
VH: EVQLLESGGGLVQPGGSLRVSCTVSGFTFSDYSMSWVRQAPGKGLDWVSAISGTGETAYYADFVKGRFTSSRDNSKNTVYLQMNSLRGEDTAVYYCVKGVFYNILSSIIVEGDYWGQGTLVTVSS
VL: B3 VL with L4M, K35N, Q55K, N58K, P61S, K79T
no binding (tested: 200 µg/mL): all assays above

B5: COV49-18 (antibody, V domains shown)
VH: B4 VH with T23A, D31N, S33A, T54S, A58R, S70I, V79L, V100A
VL: B3 VL with G1D, L4M, K35N, Q55K, N58K, P61S
no binding (tested: 200 µg/mL): all assays above

B6: COV49-33 (antibody, V domains shown)
VH: B3 VH with G1E, K19R, N30D, R39Q, S53G, S58T, I70T, S84N, A88G, I93V
VL: B3 VL with G1V, I21V, K35N
no binding (tested: 200 µg/mL): all assays above

B7: COV49-47 (antibody, V domains shown)
VH: EVQLLESGGGLAQPGGSLRLSCVASGFSFNDYAMAWVRQAPGKGLEWVSAVSGGGQTTYSTDSVKGRFTTSRDNSKNTLYLQMNGLRAEDAAVYYCVKGAFYNILSSIIVEGDNWGQGTLVTVSS
VL: B3 VL with K35N
no binding (tested: 200 µg/mL): all assays above

B8: COV49-07 (antibody, V domains shown)
VH: B4 VH with D46E, V79L, S85T, V100A
VL: B3 VL with L4M, K35N, Q55K, N58E, P61S, K79T
no binding (tested: 200 µg/mL): all assays above

B9: COV49-06 (antibody, V domains shown)
VH: EVQLLESGGGLVRPGGSLRLSCAASGFTFTNYAMSWVRQAPGKGLEWVSAISGGDGRTSYYADSVKGRFTSSRDNSKNTLYLQMNSLRAEDTAVYYCAKGAFYNILSSIIVEGDYWGQGTLVTVSS
VL: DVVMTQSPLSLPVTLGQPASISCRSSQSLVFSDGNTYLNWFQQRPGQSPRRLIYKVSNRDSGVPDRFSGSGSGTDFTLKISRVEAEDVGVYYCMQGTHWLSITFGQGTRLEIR
no binding (tested: 200 µg/mL): all assays above

B10: COV57-19 (antibody, V domains shown)
VH: QVQLQESGPGLVKPSGTLSLTCAVSGDSISSSNWWSWVRQPPGKGLEWIGEIYQSGTTNNNPSLKSRVTISIDKSKNQFSLNLTSVTAADTAVYYCARAPLVFRSYGMDVWGQGTTVTVSS
VL: DIQMTQSPSSLSASVGDRVTITCRASQTIRTYLNWYQQKPGKAPKLLIYDASNLQSGVPSRFSGSGSGTDFTLTISSLEPEDFATYYCQQSYITPPWTFGQGTKVEIK
no binding (tested: 200 µg/mL): all assays above

B11: COV57-05 (antibody, V domains shown)
VH: B10 VH with Q5L, A23D, P41S
VL: B10 VL with K104R
no binding (tested: 200 µg/mL): all assays above
